One molecule from PMC3963500 can be followed below.

This series deals with PDGF-BB (UniProt P01127 82-190). As to the kind of experiment: microcantilever deflection.
PDGF-BB, sequence (P01127 82-190): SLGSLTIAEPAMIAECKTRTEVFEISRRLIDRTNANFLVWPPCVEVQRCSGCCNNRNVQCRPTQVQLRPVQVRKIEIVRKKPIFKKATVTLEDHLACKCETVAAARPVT

B1: PDGF aptamer (thiolated) (structured_DNA)
DNA: CACAGGCTACGGCACGTAGAGCATCACCATGATCCTGTG
modifications: thiol (HS-aptamer; printed as 3'T after the sequence), immobilized on Au-coated cantilever
Turning to B1, the binding result is “binds”.
